Measured values published in patent publication US20250268980A1, “AN ANTICANCER THERAPY TARGETING RAS AND OTHER ONCOGENIC SIGNALS BY INHIBITION OF DYNAMIC BLEBBING AND/OR SEPTINS” (THE BOARD OF REGENTS OF THE UNIVERSITY OF TEXAS SYSTEM, priority 2022, published 2025).

Assays:
All Septins [1] = test: HaloLink pulldown from unperturbed A375 cells, LC-MS/MS
All Septins [2] = test: HaloLink pulldown from MV3 cells, LC-MS/MS

- % of total protein abundance (All Septins [1]): 7.04%
- fold change between lysate and pulldown (% of total protein abundance) (All Septins [1]): 56 fold
- % of total protein abundance (All Septins [2]): 8.06%
- fold change between lysate and pulldown (% of total protein abundance) (All Septins [2]): 35.9 fold
B1: mouse SEPT6-HALO (protein, UniProt Q9R1T4 2-434, looked up, not shown: small tags and cut ends; large carriers)
chain: AAADIARQVGEDCRTVPLAGHVGFDSLPDQLVNKSVSQGFCFNILCVGETGLGKSTLMDTLFNTKFEGEPATHTQPGVQLQSNTYDLQESNVGLKLTIVSTVGFGDQINKEDSYKPIVEFIDAQFEAYLQEELKIRRVLHSYHDSRIHVCLYFIAPTGHSLKSLDLVTMKKLDSKVNIIPVIAKSDAISKSELAKFKIKITSELVSNGVQIYQFPTDDESVSEINGTMNAHLPFAVVGSTEEVKIGNKMMRARQYPWGTVQVENEAHCDFVKLREMLIRVNMEDLREQTHARHYELYRRCKLEEMGFKDTDPDSKPFSLQETYEAKRNEFLGELQKKEEEMRQMFVQRVKEKEAELKEAEKELHEKFDRLKKLHQEEKKKLEDKKKCLDEEMNAFKQRKAAAELLQSQGSQAGGSQTLKRDKEKKNNPWLCIE
